Reference: PMC11117730, “A Novel Bifunctional Fusion Protein (Anti-IL-17A-sST2) Protects against Acute Liver Failure, Modulating the TLR4/MyD88 Pathway and NLRP3 Inflammasome Activation” (Biomedicines, 2024)

Biological target: T1, sST2-Fc (mouse, UniProt P14719 27-332)
T1 construct: mouse ST2L (IL-33 receptor), amino acids 27-332, cloned into a pTT5 vector that contains the human IgG4 Fc domain; also called soluble ST2 Fc fusion
T1 sequence (looked up): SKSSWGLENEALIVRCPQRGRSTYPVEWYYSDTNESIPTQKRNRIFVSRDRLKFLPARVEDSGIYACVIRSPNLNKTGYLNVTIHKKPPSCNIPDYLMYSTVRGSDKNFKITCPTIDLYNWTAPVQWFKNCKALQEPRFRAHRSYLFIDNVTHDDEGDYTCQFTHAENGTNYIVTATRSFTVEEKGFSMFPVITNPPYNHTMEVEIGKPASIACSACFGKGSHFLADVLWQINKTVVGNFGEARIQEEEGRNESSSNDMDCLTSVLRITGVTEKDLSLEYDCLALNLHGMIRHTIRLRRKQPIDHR
Test: SPR; Biacore T200; antigen (mouse IL-33) immobilised on CM5 by amine coupling; proteins flowed in a 2-fold dilution series for 120 s, dissociation 480 s
Conditions: both partners purified

B1: mouse IL-33 (ligand)
chain: SIQGTSLLTQSPASLSTYNDQSVSFVLENGCYVINVDDSGKDQEQDQVLLRYYESPCPASQSGDGVDGKKLMVNMSPIKDTDIWLHANDKDYSVELQRGDVSPPEQAFFVLHKKSSDFVSFECKNLPGTYIGVKDNQLALVEEKDESCNNIMFKLSKI
A Kd of 0.174 nM was found for B1 in this work.
